The values below are quoted from earlier work in article PMC2688729.

This data set has as its target thrombomodulin (Homo sapiens) (UniProt P07204).

Bounds are passed on as bounds.

For orientation: Kd means the free concentration of one partner at which half of the binding sites on the other are occupied at equilibrium, for simple one-to-one binding. As to thrombin (from UniProt P00734), the Kd is under 1 nM.
